# B1: Tyrosine-protein phosphatase non-receptor type 22 (Homo sapiens), Q9Y2R2 (parent)
# chain: MDQREILQKFLDEAQSKKITKEEFANEFLKLKRQSTKYKADKTYPTTVAEKPKNIKKNRYKDILPYDYSRVELSLITSDEDSSYINANFIKGVYGPKAYIATQGPLSTTLLDFWRMIWEYSVLIIVMACMEYEMGKKKCERYWAEPGEMQLEFGPFSVSCEAEKRKSDYIIRTLKVKFNSETRTIYQFHYKNWPDHDVPSSIDPILELIWDVRCYQEDDSVPICIHCSAGCGRTGVICAIDYTWMLLKDGIIPENFSVFSLIREMRTQRPSLVQTQEQYELVYNAVLELFKRQMDVIRDKHSGTESQAKHCIPEKNHTLQADSYSPNLPKSTTKAAKMMNQQRTKMEIKESSSFDFRTSEISAKEELVLHPAKSSTSFDFLELNYSFDKNADTTMKWQTKAFPIVGEPLQKHQSLDLGSLLFEGCSNSKPVNAAGRYFNSKVPITRTKSTPFELIQQRETKEVDSKENFSYLESQPHDSCFVEMQAQKVMHVSSAELNYSLPYDSKHQIRNASNVKHHDSSALGVYSYIPLVENPYFSSWPPSGTSSKMSLDLPEKQDGTVFPSSLLPTSSTSLFSYYNSHDSLSLNSPTNISSLLNQESAVLATAPRIDDEIPPPLPVRTPESFIVVEEAGEFSPNVPKSLSSAVKVKIGTSLEWGGTSEPKKFDDSVILRPSKSVKLRSPKSELHQDRSSPPPPLPERTLESFFLADEDCMQAQSIETYSTSYPDTMENSTSSKQTLKTPGKSFTRSKSLKILRNMKKSICNSCPPNKPAESVQSNNSSSFLNFGFANRFSKPKGPRNPPPTWNI
# partner: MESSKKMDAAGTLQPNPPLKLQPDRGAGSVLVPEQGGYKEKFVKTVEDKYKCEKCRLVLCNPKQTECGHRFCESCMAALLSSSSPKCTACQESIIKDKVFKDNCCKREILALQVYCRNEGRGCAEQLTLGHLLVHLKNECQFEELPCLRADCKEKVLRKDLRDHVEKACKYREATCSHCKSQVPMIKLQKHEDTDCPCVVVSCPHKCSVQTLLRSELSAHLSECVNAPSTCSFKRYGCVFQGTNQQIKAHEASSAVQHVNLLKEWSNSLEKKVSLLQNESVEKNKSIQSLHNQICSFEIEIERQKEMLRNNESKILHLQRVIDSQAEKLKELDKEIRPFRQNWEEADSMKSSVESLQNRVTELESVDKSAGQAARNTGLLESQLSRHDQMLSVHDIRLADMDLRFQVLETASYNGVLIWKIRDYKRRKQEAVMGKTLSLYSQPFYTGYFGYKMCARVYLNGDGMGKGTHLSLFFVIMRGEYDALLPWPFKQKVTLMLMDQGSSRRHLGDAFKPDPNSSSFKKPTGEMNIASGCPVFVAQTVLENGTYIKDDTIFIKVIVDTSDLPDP
# Variants of: B1
# Conditions: with traf3_mouse Traf3, Q60803
row,effect of a mutation on the interaction,Variant
1,decreasing interaction strength,R620W
